Test results published in patent publication US20210253718A1, “FRIZZLED5 PROTEIN-BINDING AGENTS” (Modmab Therapeutics Corporation, priority 2016, published 2021).
Positions count from the first letter of the chain named. Values belong to the molecule of their own block, whether it stands above or below them.

Tests used:
Test in all cases: Immunofluorescence of anti-FZD5 Fab binding to CHO cells overexpressing Frizzled CRD
Design in all cases: key: −: no binding; +: very weak binder; ++: weak binder; +++: good binder; ++++: very good binder
FZD1 CRD = molecular target: T1, FZD1 CRD (Homo sapiens, UniProt Q9UP38)
T1 construct: D112-P238; GPI anchor signal (C); expressed in transfected cells; host or cells: CHO cells, lentiviral pLenti-puro
Procedure, shortened: (§1)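 Specificity of anti-FZD5 Fabs was tested on CHO cells displaying membrane-anchored Frizzled CRDs (myc-tagged, GPI-linked), one family member per line. Detection was by immunofluorescence.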

FZD10 CRD = molecular target: T2, FZD10 CRD (Homo sapiens, UniProt Q9ULW2)
T2 construct: 30-156; GPI anchor signal (C); expressed in transfected cells; host or cells: CHO cells, lentiviral pLenti-puro
T2 sequence (Q9ULW2 30-156): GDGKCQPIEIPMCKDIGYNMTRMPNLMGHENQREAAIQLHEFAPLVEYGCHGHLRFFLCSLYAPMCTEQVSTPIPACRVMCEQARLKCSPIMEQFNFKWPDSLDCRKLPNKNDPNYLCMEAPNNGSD
Procedure, shortened: as §1

FZD2 CRD = molecular target: T3, FZD2 CRD (Homo sapiens, UniProt Q14332)
T3 construct: D35-P161; GPI anchor signal (C); expressed in transfected cells; host or cells: CHO cells, lentiviral pLenti-puro
Procedure, shortened: as §1

FZD4 CRD = molecular target: T4, FZD4 CRD (Homo sapiens, UniProt Q9ULV1)
T4 construct: E42-V167; GPI anchor signal (C); expressed in transfected cells; host or cells: CHO cells, lentiviral pLenti-puro
T4 sequence (Q9ULV1 42-167): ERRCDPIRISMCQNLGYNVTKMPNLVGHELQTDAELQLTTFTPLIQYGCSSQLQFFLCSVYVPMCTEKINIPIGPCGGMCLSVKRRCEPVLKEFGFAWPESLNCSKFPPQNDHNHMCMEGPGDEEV
Procedure, shortened: as §1

FZD5 CRD = molecular target: T5, FZD5 CRD (Homo sapiens, UniProt Q13467)
T5 construct: K29-T156; GPI anchor signal (C); expressed in transfected cells; host or cells: CHO cells, lentiviral pLenti-puro
T5 sequence (Q13467 29-156): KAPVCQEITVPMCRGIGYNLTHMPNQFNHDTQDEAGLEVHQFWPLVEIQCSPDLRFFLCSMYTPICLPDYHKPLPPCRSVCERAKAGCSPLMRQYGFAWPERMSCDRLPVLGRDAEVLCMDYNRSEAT
Procedure, shortened: as §1

FZD6 CRD = molecular target: T6, FZD6 CRD (Homo sapiens, UniProt O60353)
T6 construct: S20-P146; GPI anchor signal (C); expressed in transfected cells; host or cells: CHO cells, lentiviral pLenti-puro
T6 sequence (O60353 20-146): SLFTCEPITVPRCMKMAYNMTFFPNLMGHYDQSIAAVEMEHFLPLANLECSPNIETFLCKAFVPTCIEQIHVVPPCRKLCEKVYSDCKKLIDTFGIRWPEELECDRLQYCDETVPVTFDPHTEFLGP
Procedure, shortened: as §1

FZD9 CRD = molecular target: T7, FZD9 CRD (Homo sapiens, UniProt O00144)
T7 construct: G35-A161; GPI anchor signal (C); expressed in transfected cells; host or cells: CHO cells, lentiviral pLenti-puro
T7 sequence (O00144 35-161): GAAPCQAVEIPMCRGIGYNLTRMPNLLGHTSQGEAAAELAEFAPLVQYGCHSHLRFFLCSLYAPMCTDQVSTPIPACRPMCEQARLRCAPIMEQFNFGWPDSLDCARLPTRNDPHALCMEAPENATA
Procedure, shortened: as §1

Immunofluorescence binding, Frizzled CRD overexpressed on CHO cells: FZD1 (FZD1 CRD): − | Immunofluorescence binding, Frizzled CRD overexpressed on CHO cells: FZD10 (FZD10 CRD): − | Immunofluorescence binding, Frizzled CRD overexpressed on CHO cells: FZD2 (FZD2 CRD): − | Immunofluorescence binding, Frizzled CRD overexpressed on CHO cells: FZD4 (FZD4 CRD): − | Immunofluorescence binding, Frizzled CRD overexpressed on CHO cells: FZD5 (FZD5 CRD): ++++ | Immunofluorescence binding, Frizzled CRD overexpressed on CHO cells: FZD6 (FZD6 CRD): − | Immunofluorescence binding, Frizzled CRD overexpressed on CHO cells: FZD9 (FZD9 CRD): −
B1: Fab-2929: anti-FZD5 Fab with antibody variable region Fv-2929; CDR SEQ ID NOs: 35, 36, 68, 106, 144, 162 (antibody, V domains shown)
VH: EVQLVESGGGLVQPGGSLRLSCAASGFNISYYYIHWVRQAPGKGLEWVASIYPSSSSTSYADSVKGRFTISADTSKNTAYLQMNSLRAEDTAVYYCARGAMDYWGQGTLVTVSS
VL: DIQMTQSPSSLSASVGDRVTITCRASQSVSSAVAWYQQKPGKAPKLLIYSASSLYSGVPSRFSGSRSGTDFTLTISSLQPEDFATYYCQQWYSSYGLITFGQGTKVEIK

Immunofluorescence binding, Frizzled CRD overexpressed on CHO cells: FZD1 (FZD1 CRD): − | Immunofluorescence binding, Frizzled CRD overexpressed on CHO cells: FZD10 (FZD10 CRD): − | Immunofluorescence binding, Frizzled CRD overexpressed on CHO cells: FZD2 (FZD2 CRD): − | Immunofluorescence binding, Frizzled CRD overexpressed on CHO cells: FZD4 (FZD4 CRD): − | Immunofluorescence binding, Frizzled CRD overexpressed on CHO cells: FZD5 (FZD5 CRD): ++++ | Immunofluorescence binding, Frizzled CRD overexpressed on CHO cells: FZD6 (FZD6 CRD): − | Immunofluorescence binding, Frizzled CRD overexpressed on CHO cells: FZD9 (FZD9 CRD): −
B2: Fab-2935: anti-FZD5 Fab with antibody variable region Fv-2935; CDR SEQ ID NOs: 35, 36, 74, 111, 150, 178 (antibody, V domains shown)
VH: B1 VH with S30Y, S56G, G99A, M101F
VL: B1 VL with S93G, S94G, G96A

Immunofluorescence binding, Frizzled CRD overexpressed on CHO cells: FZD1 (FZD1 CRD): − | Immunofluorescence binding, Frizzled CRD overexpressed on CHO cells: FZD10 (FZD10 CRD): − | Immunofluorescence binding, Frizzled CRD overexpressed on CHO cells: FZD2 (FZD2 CRD): − | Immunofluorescence binding, Frizzled CRD overexpressed on CHO cells: FZD4 (FZD4 CRD): − | Immunofluorescence binding, Frizzled CRD overexpressed on CHO cells: FZD5 (FZD5 CRD): ++++ | Immunofluorescence binding, Frizzled CRD overexpressed on CHO cells: FZD6 (FZD6 CRD): − | Immunofluorescence binding, Frizzled CRD overexpressed on CHO cells: FZD9 (FZD9 CRD): −
B3: Fab-2934: anti-FZD5 Fab with antibody variable region Fv-2934; CDR SEQ ID NOs: 35, 36, 73, 110, 149, 155 (antibody, V domains shown)
VH: B1 VH with Y32S, I34M, P53S, S56G, M101I
VL: DIQMTQSPSSLSASVGDRVTITCRASQSVSSAVAWYQQKPGKAPKLLIYSASSLYSGVPSRFSGSRSGTDFTLTISSLQPEDFATYYCQQWYHYGLITFGQGTKVEIK

Immunofluorescence binding, Frizzled CRD overexpressed on CHO cells: FZD1 (FZD1 CRD): − | Immunofluorescence binding, Frizzled CRD overexpressed on CHO cells: FZD10 (FZD10 CRD): − | Immunofluorescence binding, Frizzled CRD overexpressed on CHO cells: FZD2 (FZD2 CRD): − | Immunofluorescence binding, Frizzled CRD overexpressed on CHO cells: FZD4 (FZD4 CRD): − | Immunofluorescence binding, Frizzled CRD overexpressed on CHO cells: FZD5 (FZD5 CRD): ++++ | Immunofluorescence binding, Frizzled CRD overexpressed on CHO cells: FZD6 (FZD6 CRD): − | Immunofluorescence binding, Frizzled CRD overexpressed on CHO cells: FZD9 (FZD9 CRD): −
B4: Fab-2932: anti-FZD5 Fab with antibody variable region Fv-2932; CDR SEQ ID NOs: 35, 36, 71, 108, 147, 153 (antibody, V domains shown)
VH: B1 VH with Y32S, I34M, P53S, S55Y, M101L
VL: B1 VL with S93G, Y95F, G96A

Immunofluorescence binding, Frizzled CRD overexpressed on CHO cells: FZD1 (FZD1 CRD): − | Immunofluorescence binding, Frizzled CRD overexpressed on CHO cells: FZD10 (FZD10 CRD): − | Immunofluorescence binding, Frizzled CRD overexpressed on CHO cells: FZD2 (FZD2 CRD): − | Immunofluorescence binding, Frizzled CRD overexpressed on CHO cells: FZD4 (FZD4 CRD): − | Immunofluorescence binding, Frizzled CRD overexpressed on CHO cells: FZD5 (FZD5 CRD): ++++ | Immunofluorescence binding, Frizzled CRD overexpressed on CHO cells: FZD6 (FZD6 CRD): − | Immunofluorescence binding, Frizzled CRD overexpressed on CHO cells: FZD9 (FZD9 CRD): −
B5: Fab-2936: anti-FZD5 Fab with antibody variable region Fv-2936; CDR SEQ ID NOs: 35, 36, 75, 112, 151, 179 (antibody, V domains shown)
VH: B1 VH with I34M, P53S, S56G, G99A
VL: B3 VL with H93A, Y94A, G95S

Immunofluorescence binding, Frizzled CRD overexpressed on CHO cells: FZD1 (FZD1 CRD): − | Immunofluorescence binding, Frizzled CRD overexpressed on CHO cells: FZD10 (FZD10 CRD): − | Immunofluorescence binding, Frizzled CRD overexpressed on CHO cells: FZD2 (FZD2 CRD): − | Immunofluorescence binding, Frizzled CRD overexpressed on CHO cells: FZD4 (FZD4 CRD): − | Immunofluorescence binding, Frizzled CRD overexpressed on CHO cells: FZD5 (FZD5 CRD): ++++ | Immunofluorescence binding, Frizzled CRD overexpressed on CHO cells: FZD6 (FZD6 CRD): − | Immunofluorescence binding, Frizzled CRD overexpressed on CHO cells: FZD9 (FZD9 CRD): −
B6: Fab-2930: anti-FZD5 Fab with antibody variable region Fv-2930; CDR SEQ ID NOs: 35, 36, 69, 107, 145, 153 (antibody, V domains shown)
VH: B1 VH with I29L, S54Y, S56G, M101L
VL: B3 VL with H93G, Y94P, G95Y

Immunofluorescence binding, Frizzled CRD overexpressed on CHO cells: FZD1 (FZD1 CRD): + | Immunofluorescence binding, Frizzled CRD overexpressed on CHO cells: FZD10 (FZD10 CRD): − | Immunofluorescence binding, Frizzled CRD overexpressed on CHO cells: FZD2 (FZD2 CRD): − | Immunofluorescence binding, Frizzled CRD overexpressed on CHO cells: FZD4 (FZD4 CRD): +++ | Immunofluorescence binding, Frizzled CRD overexpressed on CHO cells: FZD5 (FZD5 CRD): ++++ | Immunofluorescence binding, Frizzled CRD overexpressed on CHO cells: FZD6 (FZD6 CRD): − | Immunofluorescence binding, Frizzled CRD overexpressed on CHO cells: FZD9 (FZD9 CRD): −
B7: Fab-2933: anti-FZD5 Fab with antibody variable region Fv-2933; CDR SEQ ID NOs: 35, 36, 72, 109, 148, 177 (antibody, V domains shown)
VH: EVQLVESGGGLVQPGGSLRLSCAASGFNLYSSYMHWVRQAPGKGLEWVASIYSSYGYTSYADSVKGRFTISADTSKNTAYLQMNSLRAEDTAVYYCARTVRGSKKPYFSGWAMDYWGQGTLVTVSS
VL: DIQMTQSPSSLSASVGDRVTITCRASQSVSSAVAWYQQKPGKAPKLLIYSASSLYSGVPSRFSGSRSGTDFTLTISSLQPEDFATYYCQQFWWYASWLFTFGQGTKVEIK

Immunofluorescence binding, Frizzled CRD overexpressed on CHO cells: FZD1 (FZD1 CRD): − | Immunofluorescence binding, Frizzled CRD overexpressed on CHO cells: FZD10 (FZD10 CRD): − | Immunofluorescence binding, Frizzled CRD overexpressed on CHO cells: FZD2 (FZD2 CRD): − | Immunofluorescence binding, Frizzled CRD overexpressed on CHO cells: FZD4 (FZD4 CRD): − | Immunofluorescence binding, Frizzled CRD overexpressed on CHO cells: FZD5 (FZD5 CRD): ++++ | Immunofluorescence binding, Frizzled CRD overexpressed on CHO cells: FZD6 (FZD6 CRD): − | Immunofluorescence binding, Frizzled CRD overexpressed on CHO cells: FZD9 (FZD9 CRD): −
B8: Fab-2928: anti-FZD5 Fab with antibody variable region Fv-2928; CDR SEQ ID NOs: 35, 36, 67, 105, 143, 175 (antibody, V domains shown)
VH: EVQLVESGGGLVQPGGSLRLSCAASGFNISYSSIHWVRQAPGKGLEWVASIYPSYSSTYYADSVKGRFTISADTSKNTAYLQMNSLRAEDTAVYYCARYYAMDYWGQGTLVTVSS
VL: DIQMTQSPSSLSASVGDRVTITCRASQSVSSAVAWYQQKPGKAPKLLIYSASSLYSGVPSRFSGSRSGTDFTLTISSLQPEDFATYYCQQAFYYPITFGQGTKVEIK
